Source: patent publication US20190023810A1 (MIT, published 2019)
Blank lines part the entries; values can stand above or below the binder they belong to.

Key:
[1] = target: T1, HER3 (UniProt P21860 20-643, limits assumed); experiment: single antigen ELISA, HER3 coated, anti-human IgG HRP detection
Method: (§1) Briefly 96-well plates were coated overnight at […] with appropriate antigen. The plates were washed and blocked with 1% blotto (Santa Cruz Biotechnologies). Serial dilution of antibodies were added to the plate and incubated for 2 hours at room temperature. Antigen bound IgG was detected using RbαHu IgG HRP Conjugated secondary antibody (Jackson ImmunoResearch) followed by TMB substrate (KPL) addition.

[2] = target: T2, CD20 (UniProt P11836 1-297, limits assumed); experiment: CD20 binding titration; legend and text call it an ELISA, but the y axis 'Mean APC-A Intensity' fits the flow cytometry cell-based binding assay on Raji cells
T2 sequence (looked up): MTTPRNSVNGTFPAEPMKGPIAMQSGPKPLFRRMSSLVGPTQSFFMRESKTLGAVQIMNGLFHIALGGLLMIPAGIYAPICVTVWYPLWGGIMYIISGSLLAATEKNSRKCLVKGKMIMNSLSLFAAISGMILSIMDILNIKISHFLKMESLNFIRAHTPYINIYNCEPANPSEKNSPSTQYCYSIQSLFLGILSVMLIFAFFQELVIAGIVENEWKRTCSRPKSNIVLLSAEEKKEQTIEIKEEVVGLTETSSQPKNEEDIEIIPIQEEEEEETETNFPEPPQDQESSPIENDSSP

[3] = target: T1, HER3; experiment: single antigen ELISA, antigen coated; printed as Kd′, from a 4 parametric fit
Method: as §1

[4] = target: T3, HER1 (UniProt P00533 25-645, limits assumed); experiment: as above
T3 construct: also called EGFR
Method: as §1

[5] = target: VEGF (UniProt P15692-4 27-191, limits assumed); experiment: sandwich (dual antigen) ELISA for PD1 and VEGF bound at once; the filing does not say which antigen is coated and which is detected
Sequence of VEGF (P15692 other isoform, or with tags, fused parts or gaps limits assumed): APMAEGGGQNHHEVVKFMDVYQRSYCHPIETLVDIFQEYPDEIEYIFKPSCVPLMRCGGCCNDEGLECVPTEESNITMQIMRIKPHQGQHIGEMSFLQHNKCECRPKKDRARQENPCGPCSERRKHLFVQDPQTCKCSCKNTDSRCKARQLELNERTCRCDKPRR

[6] = target: PD1 (UniProt Q15116 25-167, limits assumed); experiment: as above
Sequence of PD1 (Q15116 25-167 limits assumed): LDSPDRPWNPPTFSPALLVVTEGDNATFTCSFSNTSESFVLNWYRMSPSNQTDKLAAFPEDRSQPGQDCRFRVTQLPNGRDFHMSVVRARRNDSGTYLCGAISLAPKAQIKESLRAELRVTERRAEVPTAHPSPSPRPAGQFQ

B1: Pertuzumab WT (antibody, V domains shown)
VH: EVQLVESGGGLVQPGGSLRLSCAASGFTFTDYTMDWVRQAPGKGLEWVADVNPNSGGSIYNQRFKGRFTLSVDRSKNTLYLQMNSLRAEDTAVYYCARNLGPSFYFDYWGQGTLVTVSS
VL: DIQMTQSPSSLSASVGDRVTITCKASQDVSIGVAWYQQKPGKAPKLLIYSASYRYTGVPSRFSGSGSGTDFTLTISSLQPEDFATYYCQQYYIYPYTFGQGTKVEIKR
binding result [1]: no binding (tested: 1 (axis 'Ab Conc.', no unit printed))

EC50 (read off the curve) [2]: ~2 µg/mL
B2: rituximab/obinutuzumab bispecific antibody (bispecific antibody, human IgG1, kappa)
light 1: QIVLSQSPAILSASPGEKVTMTCRASSSVSYIHWFQQKPGSSPKPWIYATSNLASGVPVRFSGSGSGTSYSLTISRVEAEDAATYYCQQWTSNPPTFGGGTKLEIKRTVAAPSVFIFPPSDEDLKSGTASVVCLLDNFYPREAKVQWKVDNALQSGNSQESVTEQDSKDSTYSLSSTLTLSKADYEKHKVYACEVTHQGLSSPVTKSFNRGEC
heavy 1: not shown
light 2: DIVMTQTPLSLPVTPGEPASISCRSSKSLLHSNGITYLYWYLQKPGQSPQLLIYQMSNLVSGVPDRFSGSGSGTDFTLKISRVEAEDVGVYYCAQNLELPYTFGGGTKVEIKRTVAAPSVFIFPPSDEKLKSGTASVVCLLKNFYPREAKVQWKVDNALQSGNSQESVTEQDSKDSTYSLSSALTLSKADYEKHKVYACEVTHQGLSSPVTKSFNRGEC
heavy 2: not shown
notes: Human IgG1/kappa bispecific with four different chains; Both arms are anti-CD20; also called Rxm/Ga101; Rxm/GA101

Kd [3]: 89.8 pM | Kd [4]: 89.8 pM
B3: pertuzumab/DL11 bispecific antibody (bispecific antibody, human IgG1, kappa)
light 1: DIQMTQSPSSLSASVGDRVTITCKASQDVSIGVAWYQQKPGKAPKLLIYSASYRYTGVPSRFSGSGSGTDFTLTISSLQPEDFATYYCQQYYIYPYTFGQGTKVEIKRTVAAPSVFIFPPSDEDLKSGTASVVCLLDNFYPREAKVQWKVDNALQSGNSQESVTEQDSKDSTYSLSSTLTLSKADYEKHKVYACEVTHQGLSSPVTKSFNRGEC
heavy 1: not shown
light 2: DIQMTQSPSSLSASVGDRVTITCRASQDLATDVAWYQQKPGKAPKLLIYSASFLYSGVPSRFSGSGSGTDFTLTISSLQPEDFATYYCQQSEPEPYTFGQGTKVEIKRTVAAPSVFIFPPSDEKLKSGTASVVCLLKNFYPREAKVQWKVDNALQSGNSQESVTEQDSKDSTYSLSSALTLSKADYEKHKVYACEVTHQGLSSPVTKSFNRGEC
heavy 2: not shown
notes: Human IgG1/kappa bispecific with four different chains; Expressed in Freestyle 293 cells and purified by protein A, gel filtration and the cation exchange main peak; also called P/D; P/D bi-specific

Kd [4]: 41.5 pM
B4: DL11 WT (antibody, V domains shown)
VH: EVQLVESGGGLVQPGGSLRLSCAASGFTLSGDWIHWVRQAPGKGLEWLGEISAAGGYTDYADSVKGRFTISADTSKNTAYLQMNSLRAEDTAVYYCARESRVSFEAAMDYWGQGTLVTVSS
VL: DIQMTQSPSSLSASVGDRVTITCRASQDLATDVAWYQQKPGKAPKLLIYSASFLYSGVPSRFSGSGSGTDFTLTISSLQPEDFATYYCQQSEPEPYTFGQGTKVEIKR
notes: also called MEHD7945A

EC50 (read off the curve) [5]: ~0.2 µg/mL | EC50 (read off the curve) [6]: ~0.2 µg/mL
B5: nivolumab/bevacizumab bispecific antibody (bispecific antibody, human IgG1, kappa)
light 1: not shown
heavy 1: not shown
light 2: DIQMTQSPSSLSASVGDRVTITCSASQDISNYLNWYQQKPGKAPKVLIYFTSSLHSGVPSRFSGSGSGTDFTLTISSLQPEDFATYYCQQYSTVPWTFGQGTKVEIKRTVAAPSVFIFPPSDEKLKSGTASVVCLLKNFYPREAKVQWKVDNALQSGNSQESVTEQDSKDSTYSLSSALTLSKADYEKHKVYACEVTHQGLSSPVTKSFNRGEC
heavy 2: not shown
notes: Human IgG1/kappa bispecific with four different chains; also called BsAb
